From patent US20210371490A1 (MILTENYI BIOTEC B V, published 2021) come the findings set out here.

For the assay, the target named is T1, TSPAN8 (UniProt P19075 1-237, limits assumed).
T1 sequence (looked up): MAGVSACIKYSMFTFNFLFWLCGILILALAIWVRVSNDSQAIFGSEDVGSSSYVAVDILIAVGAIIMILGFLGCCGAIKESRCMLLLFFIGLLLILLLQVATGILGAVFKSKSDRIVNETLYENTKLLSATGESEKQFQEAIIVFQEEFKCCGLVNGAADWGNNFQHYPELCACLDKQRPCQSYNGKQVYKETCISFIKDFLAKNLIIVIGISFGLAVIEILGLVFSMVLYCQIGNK
Nature of the assay: cell-based or functional assay.

B1: TSPAN8_hl_Sig4 CAR (other)
chain: EVKLLESGGGLVQPGGSMRLSCAASGFTFTDFYMNWIRQPAGKAPEWLGFIRNKASGYTTEYNPSVKGRFTISRDNTQNMLYLQMNTLRAEDTATYYCARAHSYYGYDYFDYWGQGVMVTVSSGGGGSGGGGSGGGGSDIQMTQSPASLSASLEEIVTITCQASQDIGNWLSWYQQKPGKSPQLLIYGATSLADGVPSRFSGSRSGTQYSLKISRLQVEDIRIYYCLQAYSAPWTFGGGTKLELKAASYPPVIVEMNSSVEAIEGSHVSLLCGADSNPPPLLTWMRDGTVLREAVAESLLLELEEVTPAEDGVYACLAENAYGQDNRTVGLSVMYAPWKPTVNGTMVAVEGETVSILCSTQSNPDPILTIFKEKQILSTVIYESELQLELPAVSPEDDGEYWCVAENQYGQRATAFNLSVEFAPVLLLESHCAAARDTVQCLCVVKSNPEPSVAFELPSRNVTVNESEREFVYSERSGLVLTSILTLRGQAQAPPRVICTARNLYGAKSLELPFQGAHRLMWAKIGPIYIWAPLAGTCGVLLLSLVITLYCKRGRKKLLYIFKQPFMRPVQTTQEEDGCSCRFPEEEEGGCELRVKFSRSADAPAYQQGQNQLYNELNLGRREEYDVLDKRRGRDPEMGGKPRRKNPQEGLYNELQKDKMAEAYSEIGMKGERRRGKGHDGLYQGLSTATKDTYDALHMQALPPR
For the molecule B1, the “cytokine release after 24 h co-culture with AsPC1 cells (MACSPlex), against the TSPAN8 CD8a CAR T cells” value amounted to 10 fold lower.
